According to paper PMC4151696:

What was measured:
[1] = system: TRF2; assay: EMSA
[2] = system: TRF1; assay: EMSA

Cy3 telomeric PCR product (255 bp) was tested, and the K half [1] was 111 nM and the K half [2] was 152 nM.
